Source: patent publication US20210188980A1 (SHANGHAI EPIMAB BIOTHERAPEUTICS, published 2021)

T1: recombinant human LAG-3-his protein (Novoprotein) (human, UniProt P18627 23-450)
T1 construct: Bought; also called huLAG-3; not shown: His tag
T1 sequence (looked up): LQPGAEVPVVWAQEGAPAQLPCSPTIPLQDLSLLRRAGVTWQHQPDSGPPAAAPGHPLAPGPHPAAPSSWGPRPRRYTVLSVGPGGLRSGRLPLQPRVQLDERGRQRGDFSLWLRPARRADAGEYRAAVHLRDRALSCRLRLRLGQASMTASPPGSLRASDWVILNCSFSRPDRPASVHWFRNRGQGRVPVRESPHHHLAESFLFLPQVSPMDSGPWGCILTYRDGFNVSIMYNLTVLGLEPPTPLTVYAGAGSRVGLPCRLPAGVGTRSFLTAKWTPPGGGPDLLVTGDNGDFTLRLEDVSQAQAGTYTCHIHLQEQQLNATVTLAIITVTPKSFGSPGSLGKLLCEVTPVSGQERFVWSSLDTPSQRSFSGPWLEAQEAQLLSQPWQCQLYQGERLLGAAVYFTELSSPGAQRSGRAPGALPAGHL


Key:
[1] = molecular target: T1, recombinant human LAG-3-his protein …; test: BLI Octet, FIT-Ig captured, antigen analyte
[2] = molecular target: T2, human PD-1-His protein (human, UniProt Q15116 25-167, limits assumed); test: BLI Octet, FIT-Ig captured, antigen analyte
T2 construct: also called huPD-1; not shown: His tag

[3] = molecular target: T2, human PD-1-His protein; test: SPR Biacore
[4] = molecular target: T3, human PD-1 expressed on cells (human, UniProt Q15116 25-288); test: cell RBA FACS; competitor PD-L1/Fc
T3 construct: whole, on cells; also called CHO-K1/huPD-1; CHO-K1-hPD-1 cells

[5] = molecular target: T3, human PD-1 expressed on cells; test: cell RBA FACS; competitor PD-L2/Fc

T2 sequence (Q15116 25-167 limits assumed): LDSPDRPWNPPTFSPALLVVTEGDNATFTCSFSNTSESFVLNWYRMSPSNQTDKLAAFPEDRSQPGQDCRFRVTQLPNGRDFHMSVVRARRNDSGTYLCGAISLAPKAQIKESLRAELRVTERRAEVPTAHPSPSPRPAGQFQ
T3 sequence (Q15116 25-288): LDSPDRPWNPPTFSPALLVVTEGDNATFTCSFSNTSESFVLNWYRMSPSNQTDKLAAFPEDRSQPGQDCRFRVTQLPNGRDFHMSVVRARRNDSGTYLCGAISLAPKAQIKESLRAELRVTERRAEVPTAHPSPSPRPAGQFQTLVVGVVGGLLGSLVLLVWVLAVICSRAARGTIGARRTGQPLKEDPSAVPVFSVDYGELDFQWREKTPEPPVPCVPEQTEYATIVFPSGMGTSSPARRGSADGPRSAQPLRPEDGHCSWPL

Row | Binder | Kd [3] | koff [3] | kon [3] | IC50 [4] | IC50 [5] | also measured
1 | FIT107-1-7b-2 (bispecific antibody, human IgG1, kappa, L234A L235A, FIT-Ig hexamer; outer anti-LAG-3 (HumAb747V-72 with G55A), inner anti-PD-1 (HumAb713-7)) chain 1: not shown chain 2: EVQLVQSGAEVKKPGATVKLSCTASGFNIKDDYMHWVKQRPEQGLDWIGWIVPRNANTVYASKFQGKATITADTSTNTAYLELSSLRSEDTAVYYCTVYGDYWGQGTTVTVSSASTKGPSVFPLAPSSKSTSGGTAALGCLVKDYFPEPVTVSWNSGALTSGVHTFPAVLQSSGLYSLSSVVTVPSSSLGTQTYICNVNHKPSNTKVDKKVEPKSC chain 3: not shown | – | – | – | – | – | Kd [1]: 1.41 nM; koff [1]: 0.000246 s⁻¹; kon [1]: 174000 M⁻¹ s⁻¹; Kd [2]: 7.9 nM; koff [2]: 0.000827 s⁻¹; kon [2]: 105000 M⁻¹ s⁻¹
2 | mAb703c (antibody, V domains shown) VH: DVQLQESGPGLVKPSQSLSLTCSVTGYSITTGYYWNWIRQFPGNKLEWMGYMSYDGNNNYNPSLKNRISITRDTSKNQFLLRLNSVTTEDTATYFCARDRGTTILGGTMDYWGQGTSVTVS VL: SIVMTQTPKFLFVSAGDRVTIACKASQSVSNDVAWYQQKPGQSPKLLIYYAFYRYTGVPDRFTGSGYGTDFTFTISTVQAEDLAVYFCQQDYSSPWTFGGGTKLEIK | 2.68 nM | 0.000966 s⁻¹ | 359000 M⁻¹ s⁻¹ | – | – | –
3 | HumAb713-6 (antibody, human IgG1, kappa, L234A L235A, V domains shown, humanized mAb713; also called HurnAb713-6) VH: EVQLVESGGGLVQPGGSLRLSCAASGFTFSDYGMHWVRQAPGKGLEWVSYISSGSYTIYYADTVKGRFTISRDNAKNSLYLQMNSLRDEDTAVYYCAKRGGSSHVNVMDYWGQGTTVTVSS VL: DIQMTQSPSSLSASVGDRVTITCKASDHINNWLAWYQQKPGKAPKLLIYGATSLETGVPSRFSGSGSGTDYTFTISSLQPEDIATYYCQQYWSPPYTFGGGTKVEIKR | – | – | – | 1.04 nM | 1.46 nM | –
4 | HumAb713-5 (antibody, human IgG1, kappa, L234A L235A, V domains shown, humanized mAb713) VH: EVQLVESGGGLVQPGGSLRLSCAASGFTFSDYGMHWVRQAPGKGLEWVSYISSGSYTIYYADTVKGRFTISRDNAKNSLYLQMNSLRDEDTAVYYCARRGGSSHVNVMDYWGQGTTVTVSS VL: DIQMTQSPSSLSASVGDRVTITCKASDHINNWLAWYQQKPGKAPKLLIYGATSLETGVPSRFSGSGSGTDYTFTISSLQPEDIATYYCQQYWSPPYTFGGGTKVEIKR | – | – | – | 0.91 nM | 2.95 nM | –
5 | HumAb713-8 (antibody, human IgG1, kappa, L234A L235A, V domains shown, humanized mAb713; also called HurnAb713-8) VH: EVQLVESGGGLVQPGGSLRLSCAASGFTSSDYGMHWVRQAPGKGLEWVAYISSGSYTIYYADTVKGRFTISRDNAKNSLYLQMNSLRDEDTAVYYCAKRGGSSHVNVMDYWGQGTTVTVSS VL: DIQMTQSPSSLSASVGDRVTITCKASDHINNWLAWYQQKPGKAPKLLIYGATSLETGVPSRFSGSGSGTDYTFTISSLQPEDIATYYCQQYWSPPYTFGGGTKVEIKR | – | – | – | 1.05 nM | 1.91 nM | –
6 | HumAb713-2 (antibody, human IgG1, kappa, L234A L235A, V domains shown, humanized mAb713) VH: EVQLVESGGGLVQPGGSLRLSCAASGFTFSDYGMHWVRQAPGKGLEWVSYISSGSYTIYYADTVKGRFTISRDNAKNSLYLQMNSLRDEDTAVYYCAKRGGSSHVNVMDYWGQGTTVTVSS VL: DIQMTQSPSSLSASVGDRVTITCKASDHINNWLAWYQQKPGKAPKLLIYGATSLETGVPSRFSGSGSGTDFTFTISSLQPEDIATYYCQQYWSPPYTFGGGTKVEIKR | – | – | – | 1.71 nM | 3.13 nM | –
7 | HumAb713-4 (antibody, human IgG1, kappa, L234A L235A, V domains shown, humanized mAb713) VH: EVQLVESGGGLVQPGGSLRLSCAASGFTSSDYGMHWVRQAPGKGLEWVAYISSGSYTIYYADTVKGRFTISRDNAKNSLYLQMNSLRDEDTAVYYCAKRGGSSHVNVMDYWGQGTTVTVSS VL: DIQMTQSPSSLSASVGDRVTITCKASDHINNWLAWYQQKPGKAPKLLIYGATSLETGVPSRFSGSGSGTDFTFTISSLQPEDIATYYCQQYWSPPYTFGGGTKVEIKR | – | – | – | 1.06 nM | 2.24 nM | –
8 | FIT107-1-7a-1 (bispecific antibody, human IgG1, kappa, L234A L235A, FIT-Ig hexamer; outer anti-PD-1 (HumAb713-7), inner anti-LAG-3 (HumAb747V-67 with G55A)) chain 1: not shown chain 2: EVQLVESGGGLVQPGGSLRLSCAASGFTSSDYGMHWVRQAPGKGLEWVSYISSGSYTIYYADTVKGRFTISRDNAKNSLYLQMNSLRDEDTAVYYCAKRGGSSHVNVMDYWGQGTTVTVSSASTKGPSVFPLAPSSKSTSGGTAALGCLVKDYFPEPVTVSWNSGALTSGVHTFPAVLQSSGLYSLSSVVTVPSSSLGTQTYICNVNHKPSNTKVDKKVEPKSC chain 3: DIQMTQSPSSLSASVGDRVTITCRASQEISGYLSWLQQKPGGAIKRLIYAASALDSGVPSRFSGSRSGSDYTLTISSLQPEDFADYYCLQYASYPLTFGQGTKLELKRTVAAPSVFIFPPSDEQLKSGTASVVCLLNNFYPREAKVQWKVDNALQSGNSQESVTEQDSKDSTYSLSSTLTLSKADYEKHKVYACEVTHQGLSSPVTKSFNRGEC | – | – | – | – | – | Kd [1]: 0.732 nM; koff [1]: 0.000124 s⁻¹; kon [1]: 169000 M⁻¹ s⁻¹; Kd [2]: 3.04 nM; koff [2]: 0.000538 s⁻¹; kon [2]: 177000 M⁻¹ s⁻¹
9 | FIT107-1-7a-2 (bispecific antibody, human IgG1, kappa, L234A L235A, FIT-Ig hexamer; outer anti-PD-1 (HumAb713-7), inner anti-LAG-3 (HumAb747V-72 with G55A)) chain 1: not shown chain 2: EVQLVESGGGLVQPGGSLRLSCAASGFTSSDYGMHWVRQAPGKGLEWVSYISSGSYTIYYADTVKGRFTISRDNAKNSLYLQMNSLRDEDTAVYYCAKRGGSSHVNVMDYWGQGTTVTVSSASTKGPSVFPLAPSSKSTSGGTAALGCLVKDYFPEPVTVSWNSGALTSGVHTFPAVLQSSGLYSLSSVVTVPSSSLGTQTYICNVNHKPSNTKVDKKVEPKSC chain 3: DIQMTQSPSSLSASVGDRVTITCRASQEISGYLSWLQQKPGGAIKRLIYAASALDLGVPSRFSGSRSGSDYTLTISSLQPEDFADYYCLQYASYPLTFGQGTKLELKRTVAAPSVFIFPPSDEQLKSGTASVVCLLNNFYPREAKVQWKVDNALQSGNSQESVTEQDSKDSTYSLSSTLTLSKADYEKHKVYACEVTHQGLSSPVTKSFNRGEC | – | – | – | – | – | Kd [1]: 1.22 nM; koff [1]: 0.000128 s⁻¹; kon [1]: 105000 M⁻¹ s⁻¹; Kd [2]: 3.17 nM; koff [2]: 0.000526 s⁻¹; kon [2]: 166000 M⁻¹ s⁻¹
10 | FIT107-1-7a-3 (bispecific antibody, human IgG1, kappa, L234A L235A, FIT-Ig hexamer) chain 1: not shown chain 2: EVQLVESGGGLVQPGGSLRLSCAASGFTSSDYGMHWVRQAPGKGLEWVSYISSGSYTIYYADTVKGRFTISRDNAKNSLYLQMNSLRDEDTAVYYCAKRGGSSHVNVMDYWGQGTTVTVSSASTKGPSVFPLAPSSKSTSGGTAALGCLVKDYFPEPVTVSWNSGALTSGVHTFPAVLQSSGLYSLSSVVTVPSSSLGTQTYICNVNHKPSNTKVDKKVEPKSC chain 3: DIQMTQSPSSLSASVGDRVTITCRASQEISGYLSWLQQKPGGAIKRLIYAASTLDSGVPSRFSGSRSGSDYTLTISSLQPEDFADYYCLQYASYPLTFGQGTKLELKRTVAAPSVFIFPPSDEQLKSGTASVVCLLNNFYPREAKVQWKVDNALQSGNSQESVTEQDSKDSTYSLSSTLTLSKADYEKHKVYACEVTHQGLSSPVTKSFNRGEC | – | – | – | – | – | Kd [1]: 1.47 nM; koff [1]: 0.000134 s⁻¹; kon [1]: 91000 M⁻¹ s⁻¹; Kd [2]: 3.01 nM; koff [2]: 0.000628 s⁻¹; kon [2]: 208000 M⁻¹ s⁻¹
11 | HumAb703-12 (antibody, human IgG1, kappa, L234A L235A, V domains shown, humanized mAb703) VH: EVQLQESGPGLVKPSETLSLTCAVSGYSISTGYYWNWIRQPPGKGLEWIGYMSYDGNNNYNPSLKNRITISRDTSKNQFSLKLSSVTAADTAVYYCARDRGTTILGGTMDYWGQGTTVTVSS VL: DIQMTQSPSSLSASVGDRVTITCKASQSVSNDVAWYQQKPGKAPKLLIYYAFYRYTGVPDRFSGSGYGTDFTLTISSLQPEDFATYYCQQDYSSPWTFGGGTKVEIKR | 9 nM | 0.00159 s⁻¹ | 177000 M⁻¹ s⁻¹ | – | – | –
12 | HumAb703-13 (antibody, human IgG1, kappa, L234A L235A, V domains shown, humanized mAb703) VH: EVQLQESGPGLVKPSETLSLTCAVSGYSISTGYYWNWIRQPPGKGLEWMGYMSYDGNNNYNPSLKNRITISRDTSKNQFSLKLSSVTAADTAVYYCARDRGTTILGGTMDYWGQGTTVTVSS VL: DIQMTQSPSSLSASVGDRVTITCKASQSVSNDVAWYQQKPGKAPKLLIYYAFYRYTGVPDRFSGSGYGTDFTLTISSLQPEDFATYYCQQDYSSPWTFGGGTKVEIKR | 10.6 nM | 0.00154 s⁻¹ | 145000 M⁻¹ s⁻¹ | – | – | –
13 | HumAb703-18 (antibody, human IgG1, kappa, L234A L235A, V domains shown, humanized mAb703) VH: EVQLQESGPGLVKPSETLSLTCAVSGYSISTGYYWNWIRQPPGKGLEWMGYMSYDGNNNYNPSLKNRITISRDTSKNQFSLKLSSVTAADTAVYYCARDRGTTILGGTMDYWGQGTTVTVSS VL: DIQMTQSPSSLSASVGDRVTITCKASQSVSNDVAWYQQKPGKSPKLLIYYAFYRYTGVPDRFSGSGYGTDFTLTISSLQPEDFATYFCQQDYSSPWTFGGGTKVEIKR | 18.9 nM | 0.00124 s⁻¹ | 65700 M⁻¹ s⁻¹ | – | – | –
14 | HumAb703-11 (antibody, human IgG1, kappa, L234A L235A, V domains shown, humanized mAb703) VH: EVQLQESGPGLVKPSETLSLTCAVSGYSISTGYYWNWIRQPPGKGLEWIGYMSYDGNNNYNPSLKNRVTISRDTSKNQFSLKLSSVTAADTAVYYCARDRGTTILGGTMDYWGQGTTVTVSS VL: DIQMTQSPSSLSASVGDRVTITCKASQSVSNDVAWYQQKPGKAPKLLIYYAFYRYTGVPDRFSGSGYGTDFTLTISSLQPEDFATYYCQQDYSSPWTFGGGTKVEIKR | 9.37 nM | 0.00176 s⁻¹ | 187000 M⁻¹ s⁻¹ | – | – | –
15 | HumAb703-22 (antibody, human IgG1, kappa, L234A L235A, V domains shown, humanized mAb703; also called HurnAb703-22) VH: EVQLQESGPGLVKPSETLSLTCAVSGYSISTGYYWNWIRQPPGKGLEWIGYMSYDGNNNYNPSLKNRITISRDTSKNQFSLKLSSVTAADTAVYYCARDRGTTILGGTMDYWGQGTTVTVSS VL: SIVMTQSPSSLSASVGDRVTITCKASQSVSNDVAWYQQKPGKSPKLLIYYAFYRYTGVPDRFTGSGYGTDFTLTISSLQPEDFATYFCQQDYSSPWTFGGGTKVEIKR | 6.94 nM | 0.00159 s⁻¹ | 229000 M⁻¹ s⁻¹ | – | – | –
